Laboratory results as given in the supplement of paper PMC10567573.

B1: USP39 (parent)
chain: FQGSMRIFTKKLPHPDLPAEEKEQ

Variants of: B1
Test: protein stability index of a GFP-peptide fusion (GPS, HEK-293T) (PSI 1-6); higher = more stable
Settings: c terminus: a fixed tail appended
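Also: lentivirally expressed fusions sorted by FACS into six bins by GFP to DsRed ratio, PSI derived from sequencing read proportions per bin multiplied by bin number.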

With K11Y as the variant, how does the protein stability index read?
The protein stability index was 1.71.

Which protein stability index does the source give for K11R here?
The protein stability index was 2.06.

For K11E, which protein stability index is on record?
Its protein stability index is 2.85.

With K11C as the variant, how does the protein stability index read?
Its protein stability index is 3.14.

For K11N, which protein stability index is on record?
The protein stability index was 2.35.

With K11A as the variant, how does the protein stability index read?
The protein stability index was 1.68.

Which protein stability index does the source give for K11L here?
The protein stability index was 1.65.

Which protein stability index does the source give for K11V here?
The protein stability index was 2.

Which protein stability index does the source give for K11T here?
The protein stability index was 1.96.

With K11G as the variant, how does the protein stability index read?
The protein stability index was 1.94.

Which protein stability index does the source give for K11I here?
The protein stability index was 1.87.

Which protein stability index does the source give for K11H here?
Its protein stability index is 1.57.

For K11P, which protein stability index is on record?
Its protein stability index is 1.84.

For K11F, which protein stability index is on record?
Its protein stability index is 1.7.

With K11S as the variant, how does the protein stability index read?
Its protein stability index is 1.9.

With K11M as the variant, how does the protein stability index read?
Its protein stability index is 1.61.

With K11Q as the variant, how does the protein stability index read?
The protein stability index was 1.85.

Which protein stability index does the source give for K11D here?
Its protein stability index is 2.08.

Which protein stability index does the source give for K11W here?
Its protein stability index is 1.85.

With I7D as the variant, how does the protein stability index read?
Its protein stability index is 3.85.

For I7L, which protein stability index is on record?
The protein stability index was 1.84.

For I7G, which protein stability index is on record?
Its protein stability index is 2.89.

Which protein stability index does the source give for I7M here?
The protein stability index was 2.44.

Which protein stability index does the source give for I7S here?
Its protein stability index is 3.38.

For I7F, which protein stability index is on record?
Its protein stability index is 2.94.

For I7Q, which protein stability index is on record?
Its protein stability index is 3.65.

Which protein stability index does the source give for I7V here?
Its protein stability index is 1.99.

With I7H as the variant, how does the protein stability index read?
Its protein stability index is 2.97.

For I7T, which protein stability index is on record?
Its protein stability index is 3.01.

Which protein stability index does the source give for I7W here?
Its protein stability index is 3.05.

Which protein stability index does the source give for I7R here?
Its protein stability index is 4.38.

Which protein stability index does the source give for I7A here?
The protein stability index was 2.56.

For I7Y, which protein stability index is on record?
The protein stability index was 2.12.

For I7P, which protein stability index is on record?
Its protein stability index is 1.93.

With I7N as the variant, how does the protein stability index read?
Its protein stability index is 3.65.

With I7C as the variant, how does the protein stability index read?
The protein stability index was 1.8.

Which protein stability index does the source give for I7K here?
The protein stability index was 3.69.

With I7E as the variant, how does the protein stability index read?
The protein stability index was 4.04.

Which protein stability index does the source give for R6H here?
The protein stability index was 1.83.

With R6D as the variant, how does the protein stability index read?
Its protein stability index is 1.84.

With R6Q as the variant, how does the protein stability index read?
The protein stability index was 2.22.

For R6A, which protein stability index is on record?
Its protein stability index is 1.92.

With R6E as the variant, how does the protein stability index read?
The protein stability index was 1.81.

With R6Y as the variant, how does the protein stability index read?
Its protein stability index is 2.24.

Which protein stability index does the source give for R6T here?
The protein stability index was 2.01.

For R6M, which protein stability index is on record?
Its protein stability index is 2.15.

For R6I, which protein stability index is on record?
Its protein stability index is 2.12.

With R6L as the variant, how does the protein stability index read?
Its protein stability index is 2.31.

For R6P, which protein stability index is on record?
Its protein stability index is 2.37.

For R6N, which protein stability index is on record?
The protein stability index was 1.3.

For R6C, which protein stability index is on record?
The protein stability index was 1.76.

With R6V as the variant, how does the protein stability index read?
The protein stability index was 1.82.

With R6K as the variant, how does the protein stability index read?
The protein stability index was 1.89.

With R6F as the variant, how does the protein stability index read?
Its protein stability index is 1.76.

With R6S as the variant, how does the protein stability index read?
The protein stability index was 3.04.

With R6G as the variant, how does the protein stability index read?
Its protein stability index is 1.64.

Which protein stability index does the source give for S4Q here?
Its protein stability index is 2.25.

Which protein stability index does the source give for S4V here?
Its protein stability index is 1.95.

Which protein stability index does the source give for S4H here?
Its protein stability index is 1.69.

With S4R as the variant, how does the protein stability index read?
The protein stability index was 2.46.

Which protein stability index does the source give for S4M here?
Its protein stability index is 4.08.

Which protein stability index does the source give for S4K here?
The protein stability index was 2.37.

With S4P as the variant, how does the protein stability index read?
The protein stability index was 2.3.

Which protein stability index does the source give for S4W here?
Its protein stability index is 2.04.

Which protein stability index does the source give for S4Y here?
The protein stability index was 2.25.

With S4N as the variant, how does the protein stability index read?
Its protein stability index is 1.79.

For S4T, which protein stability index is on record?
Its protein stability index is 1.98.

For S4I, which protein stability index is on record?
The protein stability index was 2.27.

With F8V as the variant, how does the protein stability index read?
The protein stability index was 3.04.

For F8E, which protein stability index is on record?
Its protein stability index is 4.01.

Which protein stability index does the source give for F8N here?
The protein stability index was 3.68.

Which protein stability index does the source give for F8K here?
Its protein stability index is 3.64.

Which protein stability index does the source give for F8A here?
The protein stability index was 3.6.

For F8G, which protein stability index is on record?
Its protein stability index is 3.48.

For F8S, which protein stability index is on record?
The protein stability index was 3.29.

For F8W, which protein stability index is on record?
The protein stability index was 1.56.

For F8L, which protein stability index is on record?
The protein stability index was 3.28.

With F8R as the variant, how does the protein stability index read?
The protein stability index was 3.59.

With F8T as the variant, how does the protein stability index read?
Its protein stability index is 3.89.

With F8I as the variant, how does the protein stability index read?
The protein stability index was 3.17.

With F8Q as the variant, how does the protein stability index read?
Its protein stability index is 3.77.

With F8D as the variant, how does the protein stability index read?
Its protein stability index is 4.23.

Which protein stability index does the source give for F8Y here?
Its protein stability index is 2.35.

For F8H, which protein stability index is on record?
Its protein stability index is 3.33.

Which protein stability index does the source give for F8M here?
Its protein stability index is 3.52.

Which protein stability index does the source give for F8C here?
The protein stability index was 3.05.

Which protein stability index does the source give for F8P here?
The protein stability index was 3.42.

For L12R, which protein stability index is on record?
Its protein stability index is 1.32.

Which protein stability index does the source give for L12H here?
The protein stability index was 2.17.

For L12V, which protein stability index is on record?
Its protein stability index is 1.74.

With L12I as the variant, how does the protein stability index read?
Its protein stability index is 1.91.

For L12Q, which protein stability index is on record?
The protein stability index was 2.23.

With L12K as the variant, how does the protein stability index read?
Its protein stability index is 1.86.

With L12C as the variant, how does the protein stability index read?
Its protein stability index is 2.15.

With L12D as the variant, how does the protein stability index read?
The protein stability index was 2.63.

Which protein stability index does the source give for L12M here?
The protein stability index was 2.37.

With L12S as the variant, how does the protein stability index read?
The protein stability index was 2.41.

For L12P, which protein stability index is on record?
The protein stability index was 2.45.

Which protein stability index does the source give for L12N here?
The protein stability index was 2.05.

For L12Y, which protein stability index is on record?
Its protein stability index is 2.

For L12G, which protein stability index is on record?
Its protein stability index is 1.72.

Which protein stability index does the source give for L12W here?
The protein stability index was 1.45.

Which protein stability index does the source give for L12A here?
Its protein stability index is 1.62.

Which protein stability index does the source give for L12E here?
The protein stability index was 1.71.

With L12F as the variant, how does the protein stability index read?
Its protein stability index is 1.47.

Which protein stability index does the source give for L12T here?
The protein stability index was 1.93.

With M5P as the variant, how does the protein stability index read?
Its protein stability index is 1.87.

For M5E, which protein stability index is on record?
Its protein stability index is 2.5.

For M5F, which protein stability index is on record?
Its protein stability index is 1.89.

For M5C, which protein stability index is on record?
Its protein stability index is 2.62.

For M5R, which protein stability index is on record?
Its protein stability index is 1.89.

Which protein stability index does the source give for M5G here?
Its protein stability index is 1.73.

Which protein stability index does the source give for M5T here?
The protein stability index was 1.61.

With M5D as the variant, how does the protein stability index read?
Its protein stability index is 2.11.

For M5H, which protein stability index is on record?
The protein stability index was 1.82.

With M5Y as the variant, how does the protein stability index read?
Its protein stability index is 1.85.

Which protein stability index does the source give for M5W here?
Its protein stability index is 2.14.

Which protein stability index does the source give for M5N here?
The protein stability index was 2.15.

Which protein stability index does the source give for M5V here?
The protein stability index was 2.17.

Which protein stability index does the source give for M5L here?
The protein stability index was 2.01.

For M5Q, which protein stability index is on record?
Its protein stability index is 2.29.

For M5I, which protein stability index is on record?
The protein stability index was 1.66.

For M5K, which protein stability index is on record?
The protein stability index was 2.07.

For M5A, which protein stability index is on record?
The protein stability index was 2.1.

Which protein stability index does the source give for M5S here?
Its protein stability index is 1.61.

For P13C, which protein stability index is on record?
The protein stability index was 2.05.

Which protein stability index does the source give for P13D here?
Its protein stability index is 1.72.

For P13F, which protein stability index is on record?
The protein stability index was 1.99.

For P13A, which protein stability index is on record?
Its protein stability index is 2.94.

For P13E, which protein stability index is on record?
The protein stability index was 1.98.

For T9N, which protein stability index is on record?
Its protein stability index is 2.65.

With T9A as the variant, how does the protein stability index read?
The protein stability index was 2.04.

For T9M, which protein stability index is on record?
Its protein stability index is 2.03.

For T9S, which protein stability index is on record?
The protein stability index was 1.75.

For T9E, which protein stability index is on record?
Its protein stability index is 3.07.

Which protein stability index does the source give for T9I here?
The protein stability index was 1.66.

With T9C as the variant, how does the protein stability index read?
The protein stability index was 1.69.

With T9Y as the variant, how does the protein stability index read?
The protein stability index was 1.94.

Which protein stability index does the source give for T9G here?
Its protein stability index is 2.25.

With T9K as the variant, how does the protein stability index read?
Its protein stability index is 2.08.

With T9Q as the variant, how does the protein stability index read?
Its protein stability index is 2.19.

For T9R, which protein stability index is on record?
Its protein stability index is 2.23.

Which protein stability index does the source give for T9D here?
Its protein stability index is 2.73.

With T9H as the variant, how does the protein stability index read?
Its protein stability index is 2.

With T9W as the variant, how does the protein stability index read?
The protein stability index was 2.23.

With T9L as the variant, how does the protein stability index read?
Its protein stability index is 1.92.

With T9V as the variant, how does the protein stability index read?
The protein stability index was 1.5.

With T9F as the variant, how does the protein stability index read?
Its protein stability index is 1.89.

Which protein stability index does the source give for T9P here?
The protein stability index was 3.14.

With K10Y as the variant, how does the protein stability index read?
The protein stability index was 1.94.

With K10T as the variant, how does the protein stability index read?
The protein stability index was 1.19.

With K10A as the variant, how does the protein stability index read?
The protein stability index was 2.08.

With K10N as the variant, how does the protein stability index read?
Its protein stability index is 2.81.

With K10P as the variant, how does the protein stability index read?
Its protein stability index is 3.29.

With K10M as the variant, how does the protein stability index read?
Its protein stability index is 1.37.

With K10H as the variant, how does the protein stability index read?
Its protein stability index is 2.37.

Which protein stability index does the source give for K10C here?
Its protein stability index is 3.86.

Which protein stability index does the source give for K10W here?
The protein stability index was 1.81.

Which protein stability index does the source give for K10R here?
Its protein stability index is 1.61.

Which protein stability index does the source give for K10Q here?
Its protein stability index is 1.84.

Which protein stability index does the source give for K10S here?
The protein stability index was 2.44.

Which protein stability index does the source give for K10V here?
Its protein stability index is 2.22.

Which protein stability index does the source give for K10D here?
The protein stability index was 2.07.

With K10G as the variant, how does the protein stability index read?
The protein stability index was 2.2.

Which protein stability index does the source give for K10I here?
The protein stability index was 1.74.

For K10L, which protein stability index is on record?
The protein stability index was 2.53.

For K10F, which protein stability index is on record?
The protein stability index was 2.03.
